167 variants from the RNAGym collection of RNA variant scans (doi:10.7554/elife.90254) can be followed below.

B1: LINE1-full (parent)
chain: UACGUAGGUGGUUUUCCCCUGAUAGUGCUAAGGGGGCCUGGAAGUUUGGACUGGGCAGAGCUCAACACAGCGUGGCAAAGUGGCUGUGGCUAGACUGCCUCUCUGGAUUCCUCGUCACUCAGCAGGGCAUCUCUGAGAGAAAUGCC

The data set covers variants of B1. The data set is described as follows: self-cleavage, relative activity (ratio to wild type); higher = more cleavage; in vitro, sequencing; the parent is a self-cleaving ribozyme.
Regarding U52A A78U, the self-cleavage came to 2.37.
C51U A121G: the self-cleavage came to 1.85.
As to U52A A141G, the self-cleavage was 1.11.
The same measure for U52A G75U: 0.45; for U52C A94G: 0.24.
As for U52G U115C, the self-cleavage came out at 1.71.
Regarding G53A U96A, the self-cleavage was 0.06.
The same measure for A50G G80U: 0.35.
For the variant A50G G80A, the self-cleavage turned out to be 1.79.
The same measure for A50U U104C: 1.03; for A50C A107G: 1.53.
In the case of G53A C61U it was 0.03; in that of U52A A121U, 1.03.
In the case of A50C U81A it was 1.76; in that of U52C C56U, 0.11.
Consider U52G U73A, for which the self-cleavage is 1.74.
In the case of U52C U115A, the self-cleavage stood at 1.34.
In the case of A50G G105A it was 0.43; in that of A50G G105C, 1.11.
For the variant A50U C146U, the self-cleavage was determined as 1.07.
The same measure for A50U U109A: 0.78; for G53A U102G: 0.68.
The same measure for G53A U102A: 1.3; for C51U U100C: 1.68; for C51A U73G: 0.69.
In the case of G53C A65U it was 0.2; in that of A50U A78G, 0.83.
On to C51A U108A, for which the self-cleavage was 1.31.
Take U52A G88A: the self-cleavage came out at 0.12.
For the variant C51U U62C, the self-cleavage was found to be 0.05.
The same measure for U52C A140G: 1.1; for U52C A140U: 1.15; for A50U A121G: 1.09.
In the case of A50C A121G it was 2.3.
As to C51A U62A, the self-cleavage turned out to be 0.02.
G53A U108C: the self-cleavage worked out at 1.97.
Regarding U52A A124U, the self-cleavage was 1.15.
The same measure for U52A A124G: 1.07; for G53A: 1.32; for G53U: 1.25.
The same measure for G53C: 1.13; for A50G U96G: 0.26.
For A50U U81A, the self-cleavage was found to be 1.1.
For the variant A50U U81G, the self-cleavage came out at 0.74.
In the case of U52A G106C it was 1.84; in that of C51U U130C, 1.4; in that of U52A G80C, 0.98.
In the case of U52G U87G it was 0.59; in that of C51U U115C, 1.98; in that of A50G U52C, 1.08.
In the case of A50G U52G it was 0.18.
C51U G137U: the self-cleavage is 1.25.
For the variant C51U U73A, the self-cleavage was determined as 1.48.
In the case of C51U U132C it was 0.69; in that of A50G A67C, 0; in that of A50G A67U, 0.1.
As to U52A A64G, the self-cleavage turned out to be 0.31.
Consider A50G U73A, for which the self-cleavage is 0.78.
In the case of A50G U73G it was 0.34; in that of A50G U73C, 1.31.
As to U52G A59G, the self-cleavage is 0.34.
In the case of C51U A77G it was 2.03; in that of A50U A129G, 0.83; in that of A50U A129U, 1.12.
With U52A G55A, the self-cleavage was found to be 0.3.
In the case of U52G it was 1.45; in that of U52C, 1.24; in that of U52A, 1.34.
In the case of G53A A136G it was 1.71; in that of U52C A77U, 1.07.
The same measure for U52C A77G: 2.8; for C51U U102C: 0.41; for U52C U96A: 0.1.
Take A50G G82A: the self-cleavage came to 1.04.
As to U52C A138C, the self-cleavage turned out to be 1.62.
In the case of A50G C84U it was 0.11; in that of U52C A69U, 0.1; in that of U52C A69G, 0.11.
In the case of A50U A140G, the self-cleavage amounted to 1.05.
For the variant G53A U100C, the self-cleavage was found to be 1.09.
In the case of G53U A77G it was 2.05.
In the case of U52A G72A it was 1.55.
In the case of G53U A141G it was 1.58; in that of U52C C113A, 0.99; in that of G53A A67G, 0.38.
On to U52A A57G, for which the self-cleavage is 0.89.
For U52A A57U, the self-cleavage worked out at 0.14.
The same measure for U52C C84G: 0; for C51U U104C: 1.62; for A50U C90U: 0.05.
Consider U52G C118U, for which the self-cleavage was 2.3.
The same measure for G53A U115C: 1.07.
The same measure for G53A U115A: 1.31; for U52C C99U: 0.64.
The same measure for U52C C99A: 0.27.
As for U52A A117G, the self-cleavage came to 1.43.
In the case of U52A A117U it was 1.35.
As to U52A U96A, the self-cleavage was 0.07.
Turning to U52A U96C, the self-cleavage worked out at 0.15.
The same measure for A50G U130A: 0.83; for G53U A78G: 0.71; for A50U A94U: 0.27.
Consider U52G A57G, for which the self-cleavage is 0.82.
In the case of A50U U85A it was 0.05.
Consider A50U U62C, for which the self-cleavage was 0.04.
In the case of A50G A121G it was 1.11; in that of A50G A121U, 0.48.
In the case of U52C C71U it was 0.7; in that of U52C C101G, 1.31.
In the case of A50U A59U, the self-cleavage was 0.67.
For C51U A67G, the self-cleavage came to 0.5.
For U52C C98A, the self-cleavage came out at 0.1.
The same measure for A50G U112C: 0.73; for A50G U104C: 1.08; for A50G G126A: 0.41.
The same measure for A50G G126U: 0.76.
As to U52A U91A, the self-cleavage was 0.63.
In the case of A50G G83A it was 0.28; in that of U52G A94U, 0.42; in that of A50U A69C, 0.04.
Turning to U52A A136G, the self-cleavage was 1.4.
As for C51U A94G, the self-cleavage was 0.22.
As for U52C A64U, the self-cleavage was 0.45.
The same measure for U52C A64G: 0.34.
The same measure for C51U U52C: 0.99; for A50U A57G: 0.08.
Consider U52C G60A, for which the self-cleavage worked out at 0.03.
For the variant C51U A64U, the self-cleavage was 0.46.
In the case of U52G U102C it was 1.87; in that of U52C U87C, 0.11; in that of C51U U91A, 0.84.
C51A A138G: the self-cleavage worked out at 1.44.
In the case of U52G G70A it was 0.42; in that of G53A A107G, 1.28.
The same measure for U52A A69U: 0.08.
For the variant U52A U62C, the self-cleavage was found to be 0.04.
In the case of U52A U62A it was 0.05; in that of U52A C113U, 1.41.
On to A50G U102C, for which the self-cleavage worked out at 1.51.
In the case of U52C A78U it was 1.56.
The same measure for G53A A124G: 0.77; for A50G A129U: 0.26; for A50G A129C: 0.75.
A50G A129G: the self-cleavage came to 1.22.
As to U52C G83A, the self-cleavage amounted to 0.53.
With A50G G58C, the self-cleavage was 0.11.
The same measure for U52C U85C: 0.31.
Turning to U52C U85A, the self-cleavage came to 0.13.
In the case of A50C G122C it was 1.1; in that of A50G A79C, 1.02.
The same measure for A50G A79G: 1; for U52A A140U: 1.57; for A50G A94G: 0.32.
In the case of A50G A94U it was 0.27; in that of C51A A141G, 1.75; in that of U52A U73A, 1.63.
Turning to U52A U73C, the self-cleavage was found to be 2.24.
On to G53A A77G, for which the self-cleavage was 1.82.
In the case of A50G A92U it was 0.37; in that of A50G A107U, 1.24; in that of U52A C98U, 0.12.
In the case of U52C G139A it was 0.78; in that of G53A G126U, 1.31.
For G53A G126A, the self-cleavage turned out to be 1.23.
In the case of U52C U109A it was 1.6; in that of U52C U109C, 0.69; in that of A50C C103U, 1.37.
